The record followed here is patent US20240287172A1 (SCIRHOM, published 2024).

Where a chain is given by its changes, count along the chain named.

The labels stand for the following.
B1: antibody 3 (antibody, V domains shown)
VH: QVTLKESGPGILQPSQTLSLTCSFSGFSLTTFAMGIGWVRQPSGKGLEWLAHIWWDGEKYNNPVLKSRLTISKDTSKNQVFLRIANVDTPDTATYYCARISSIYYIIDNWGQGTSVTVSS
VL: DIVLTQSPATLSVTPGHSVSLSCRASQSISNNLHWYQKKSHESPRLLIKYVSQSISGIPSRFSGSGSGTDFTLSINSVETEDFGMYFCQQSYNWPLTFGAGTKLELK
notes: mouse IgG, kappa light chain; also called clone #3; purified antibody 3
B2: antibody 34 (antibody, V domains shown)
VH: QVTLKESGPGILQPSQTLSLTCSFSGFSLSTFSLGVGWIRQSSGKGLEWLAHIWWDDEKYYNPALKSRLTISKDTSKNQVFLKIANVDAADTATYYCARAYYSKSYYALDYWGQGTSVTVSS
VL: DIQMTQSPSSLSASLGERVSLTCRASQEISGYLSWLQQKPDGTIKRLIYAASTLDSGVPKRFSGSRSGSDYSLAISSLESEDFADYYCLQYANFPFTFGSGTKLEIK
notes: mouse IgG, kappa light chain; also called clone #34; purified antibody 34
B3: antibody 5 (antibody, V domains shown)
VH: QVTLKESGPGILQPSQTLSLTCSFSGFSLSTFGMGVGWIRQPSGKGLEWLAHIWWDDEKYYNSALKSRLTISKATSKNQAFLKIANVDTADTATYYCARISNYGSNYWYFNVWGTGTTVTVSS
VL: QVVLTQSPALMSASPGEKVTMTCSAGSSVSCMYWYQQKPGSSPRVLIYDTSNLASGVPARFTGSGSGTSYSLTISRMEAEDAASYYCQQWNSYPLTFGAGTKLELK
notes: mouse IgG, kappa light chain; also called clone #5; purified antibody 5
B4: antibody 44 (antibody, V domains shown)
VH: B3 VH with G44E, E58D, S63P, A74D, A80I, A85T, D91E, A98S, S101G, N111D
VL: QIVLTQSPAVMSASPGEKVTMTCTASSSVYYMYWYQQTPGSSPRLLIYDTSNLASGVPVRFSGSGSGTSYSLTISRMEAEDAATYYCQQWNTYPLTFGAGTKLELK
notes: mouse IgG, kappa light chain; also called clone #44; purified antibody 44
B5: antibody 43 (antibody, V domains shown)
VH: B3 VH with T3A, P42S, H52N, E58D, S63P, A74D, T75A, S101G, N111D
VL: QIVLTQSPAIMSASPGERVTMTCSANSRISYMYWYQQKPGSSPRLLIYDTSNLASGVPVRFSGSGSGTSYSLTISRMEAEDAATYNCQQWSSYPLTFGAGTKLELK
notes: mouse IgG, kappa light chain; also called clone #43; purified antibody 43
B6: antibody 48 (antibody, V domains shown)
VH: QVQLQQSGTELVRPGTSVKVSCKASGYAFTNYLIEWVKQRPGQGLEWIGVINPGSGFTKYNEKFKGKATLTADKSSSTVYMHLSSLTSEDSAVYFCARGLYRAMDYWGQGTSVTVSS
VL: DIQMTQSPASQSASLGESVTITCLASQTIATWLAWYQQKPGKSPQLLIYGATTLADGVPSRFSGGGSGTKFSFKISSLQAEDFVSYYCQQLYSTPYTFGGGTKLEIK
notes: mouse IgG, kappa light chain; also called clone #48; purified antibody 48
B7: antibody 50 (antibody, V domains shown)
VH: B6 VH with T9A, T16A, T30S, V79A, H82Q
VL: B6 VL with A30G, G50A, T52A, T53S, S85N, L91I
notes: mouse IgG, kappa light chain; also called clone #50; purified antibody 50
B8: antibody 42 (antibody, V domains shown)
VH: B3 VH with F24L, M34R, S63P, A74D, A80V, K83R, S101Q, N111D
VL: B5 VL with Q1L, R18K, S24G, N26T, Y33F, L45V, M77V, A82V, N86Y, S91N
notes: mouse IgG, kappa light chain; also called clone #42; purified antibody 42

One experiment deals with T1, hiR2-FL-G546A-T7 (human, UniProt Q6PJF5 1-856).
T1 sequence: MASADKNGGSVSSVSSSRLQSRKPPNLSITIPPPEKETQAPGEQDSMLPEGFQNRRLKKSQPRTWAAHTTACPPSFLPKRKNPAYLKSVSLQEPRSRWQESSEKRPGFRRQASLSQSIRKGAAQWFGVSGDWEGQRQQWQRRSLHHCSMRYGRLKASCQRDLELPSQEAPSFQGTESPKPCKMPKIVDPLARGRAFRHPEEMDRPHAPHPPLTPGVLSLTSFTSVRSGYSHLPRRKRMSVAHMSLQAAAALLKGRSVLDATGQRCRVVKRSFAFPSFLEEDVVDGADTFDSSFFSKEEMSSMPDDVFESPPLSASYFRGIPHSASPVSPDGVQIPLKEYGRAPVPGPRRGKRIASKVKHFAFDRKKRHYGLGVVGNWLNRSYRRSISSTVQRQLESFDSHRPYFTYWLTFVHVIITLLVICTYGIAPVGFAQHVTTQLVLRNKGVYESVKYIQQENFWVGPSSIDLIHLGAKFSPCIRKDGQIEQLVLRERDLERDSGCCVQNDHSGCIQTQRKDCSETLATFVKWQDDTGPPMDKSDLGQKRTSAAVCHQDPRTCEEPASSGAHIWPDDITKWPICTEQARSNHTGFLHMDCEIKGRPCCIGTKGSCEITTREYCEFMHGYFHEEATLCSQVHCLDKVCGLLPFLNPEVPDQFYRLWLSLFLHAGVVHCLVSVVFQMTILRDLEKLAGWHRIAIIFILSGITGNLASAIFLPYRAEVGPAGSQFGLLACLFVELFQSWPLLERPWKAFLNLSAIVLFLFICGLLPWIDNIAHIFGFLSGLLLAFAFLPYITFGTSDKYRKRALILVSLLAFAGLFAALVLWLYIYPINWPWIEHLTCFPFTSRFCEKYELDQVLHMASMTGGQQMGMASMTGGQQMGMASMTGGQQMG
Briefly: FACS on MEF-DKO cells expressing the variant, 3 µg/ml antibody. The method in brief: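 Read-out is PE fluorescence by flow cytometry after two-step staining: antibody at 3 μg/ml for 1 hour on ice, then PE-labelled goat anti-mouse IgG F(ab′)2 (1:100) for 1 hour on ice.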
As to B1, the “loss of binding vs wild type” value was at least 30%.

As for B2, the “loss of binding vs wild type” value is at least 30%.

Turning to B3, the “loss of binding vs wild type” value was at least 30%.

As to B4, the “loss of binding vs wild type” value was at least 30%.

As for B5, the “loss of binding vs wild type” value is at least 30%.

A further experiment deals with T2, hiR2-FL-T530P-T7 (human, UniProt Q6PJF5 1-856).
T2 sequence: T1 sequence with T530P, A546G
Briefly: FACS, MEF-DKO cells, 3 µg/ml. On the technique in general: A flow cytometer gives signals particle by particle.
For the molecule B6, the “loss of binding vs wild type” value is at least 30%.

In the case of B7, the “loss of binding vs wild type” value was at least 30%.

As for B8, the “loss of binding vs wild type” value was at least 30%.
